Experimental findings from article PMC3139607, “Broad-Spectrum Inhibition of HIV-1 by a Monoclonal Antibody Directed against a gp120-Induced Epitope of CD4” (PLoS ONE, 2011) are described below.

The target of this experiment is T1, MAb DB81 (Mus musculus).
T1 construct: IgH V1-39*01, D2-2*01, J3*01; IgK V6-17*01, J2*01; Whole mouse IgG1 kappa; only the variable domains are printed; The first and last residues of each V domain lie under the PCR primers; also called C9 (parent hybridoma well); anti-human CD4-HIV-1-gp120 complex DB81 monoclonal antibody; source: mouse hybridoma (spleen cells of immunized Balb/c mice x P3X63Ag8.653 myeloma); purified from cell …
T1 sequence (VH, as listed by the source, chain 1 of 2): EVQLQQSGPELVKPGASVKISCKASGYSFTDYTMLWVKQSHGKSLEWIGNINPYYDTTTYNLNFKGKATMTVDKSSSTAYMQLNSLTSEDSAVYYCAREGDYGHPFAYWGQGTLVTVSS
T1 sequence (VL, as listed by the source, chain 2 of 2): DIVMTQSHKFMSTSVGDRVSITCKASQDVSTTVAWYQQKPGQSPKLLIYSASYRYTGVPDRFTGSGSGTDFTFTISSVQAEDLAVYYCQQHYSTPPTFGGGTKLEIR
The experiment can be described thus: SPR; MAb DB81 bound to the chip; synthetic 19-mer CD4 peptides as analytes (Figure 5). To be noted: both partners purified.

B1: human CD4-derived 19-mer peptide GTWTCTVLQNQKKVEFKID (peptide)
peptide: GTWTCTVLQNQKKVEFKID
notes: aa; 180-198 of membrane CD4 from Hominidae (Homo, P. troglodytes); also called human peptide; source: synthetic peptide (solid-phase F-moc, RP-HPLC purified)
B1: the binding result is recorded as “binds”.
